Reference: patent publication US20250134019A1, “TRIKETONE DIOXYGENASE VARIANTS FOR HERBICIDE TOLERANCE” (Monsanto Technology LLC, priority 2022, published 2025)

Key:
transgenic cotton plants = assay: Mesotrione treatment of cotton plants expressing TDO variants, crop injury; assay type: in vivo; details: Under 80° F., R2 cotton sprayed at V3
Method: Cotton is a crop of interest that is often exposed to high temperature growing conditions and thus, selected TDO variants were tested in cotton. Three TDO variants, D08, TDO_6, and TDO_8 were transformed into cotton (along with the Os.TDO control) using similar expression elements in single-cassette vectors or as part of multi-cassette vectors. R2 transgenic cotton plants were then screened for tolerance to mesotrione. Sixteen plants from two events each per construct were sprayed with two rates (2X and 8X) of mesotrione at V3 stage under normal (80° F.) and hot (100° F.) growing conditions. In addition, the effect of heat treatment on TDO accumulation in cotton plants were measured by ELISA. Cotton plants were planted and grown under normal greenhouse conditions (80° F. day/70° F. night) until V3 growth stage. Half of the plants were then moved to a higher temperature growth chamber (100° F. day/82° F. night) for the heat treatment, whereas the remaining half of the plants stayed in the same greenhouse (80° F. day/70° F. night). At day 3 after the plants were placed under different temperature conditions, leaf samples were collected for TDO protein measurement. The plants in 100° F. growth chamber and in 80° F. greenhouse were both sprayed with 2X mesotrione (210 g a.i./ha). Leaf samples were collected again 7 days after mesotrione treatment (DAT: Days After Treatment) for protein assay. Table 5 compares protein levels of the TDO variants in transgenic cotton plants grown under the two tested conditions. The protein levels for the TDO variants were measured at three time points for plants: 1) just before entering the high temperature treatment, 2) three days following placement into control (normal growth temperature) or high temperature (100° F.), and 3) 7 days after a 2X mesotrione spray.

[1] = Specific activity of purified TDO proteins, second hydroxylation of mesotrione; assay type: biochemical; details: purified His6-tagged protein from E. coli, FIG. 8
Excerpt: Activity was expressed as nmol/min/mg protein and was the mean of three separate assays on the same enzyme sample (technical reps).
To test the hypothesis, the four amino acids of sorghum TDO corresponding to amino acid positions 230, 301, 332, and 335 in rice TDO were replaced with those of rice TDO. The corn, rice, sorghum, and the modified sorghum TDO genes were cloned into a pET28 vector for E. coli expression with His6 tag in the N-terminus. Subsequently, the proteins were expressed and purified by affinity chromatography. BL21-CodonPlus (DE3)-RIPL E. coli cells (Stratagene) were used for expression. Cells transformed with expression vector were grown in autoinduction media (AIM) supplemented with 100 μg mL-1 kanamycin and 34 μg mL-1 chloramphenicol.
TDO proteins used in this study were expressed in AIM cells using an auto-induction system as described by Studier (2014). Briefly, the recombinant cultures were grown at 37° C. for 3 hours and then 20° C. for one or two days. Cells were harvested by centrifugation and frozen at −80° C. The pellet was resuspended in lysis buffer (Bper and Yper [Pierce] with ratio 3 to 1, 25 mM Tris-HCl, 300 mM NaCl, 10 mM imidazole, pH 8.0). 150 mM ferric ammonium citrate (1000X) was added to the lysate to a final concentration of 150 µM and incubated on ice for 20 minutes. The lysate was centrifuged to clarify the supernatant. Clear supernatant was loaded onto a 5 mL Ni column connected to AKTA Express (GE Healthcare). […] Protein concentrations were determined spectrophotometrically based on their calculated molar absorption extinction coefficients at 280 nm.
TDO activity was measured by the second hydroxylation of mesotrione. For routine activity measurements of TDO and determining the kinetic properties of the second hydroxylation, the continuous change in A330, which is specific to the second hydroxylation and subsequent non-enzymatic water removal (i.e. the conversion of hydroxy-mesotrione to oxy-mesotrione), was monitored. […] The reaction proceeded until the maximum A330 was obtained (usually 20-120 minutes depending upon the concentration of mesotrione) and the linear portion of the curve was determined by visual inspection. […]
For the activity calculation, aliquots of the reaction were removed at various time points during the reaction and heated at 95° C. to halt the reaction. The reaction mixtures were analyzed by HPLC and mass spectrophotometry. By product conversation followed by peak integration on HPLC, a linear plot was obtained and the extinction co-efficient delta between the substrate (mesotrione) and the second product (oxy-mesotrione) was obtained according to the equation ΔA330=(εp-εs)*bΔp where ΔA330 is the change of absorbance at 330 nm and b is the light path.

[2] = tested on: transgenic soybean plants; assay: Mesotrione injury of R0 transgenic soybean plants expressing TDO homologs; assay type: in vivo; details: promoter Constitutive 2, 3' UTR B; 210 g a.i./ha mesotrione at V3-V4, rated 7-14 days after treatment; mean of all tested events
Method: Plant expression vectors comprising the selected TDO homologs under the control of one of two constitutive promoters were transformed into soybean via an Agrobacterium tumefaciens-mediated method. Following Agrobacterium transformation, R0 transgenic soybean plants containing a single copy of the transgene were identified through molecular characterization and segregation analysis. Transgenic and wild-type (control) plants were grown in 6-inch pots filled with BM7 soilless mix in a growth chamber under the conditions of 28° C./23° C. (light/dark) and a 16 hr light/8 hr dark photoperiod. Plants were fertilized with 15-5-15 liquid fertilizer at the V3-V4 growth stage and treated with 210 g a.i./ha mesotrione (1X=105 g a.i./ha; Callisto®, Syngenta in 1% crop oil). Plants were visually rated 7-14 days after treatment on a scale of 0% to 100%, with 0%=no injury and 100%=plant death, relative to the wild-type controls. The results summarized in Table 2 represent the mean of all tested events (10-15) for each construct.

B1: Os.TDO: TDO from Oryza sativa (HIS1), SEQ ID NO:2, polynucleotide codon optimized for dicot expression (protein, listed as Oryza sativa)
chain: MADESWRAPAIVQELAAAGVEEPPSRYLLREKDRSDVKLVAAELPEPLPVVDLSRLDGAEEATKLRVALQNWGFFLLTNHGVEASLMDSVMNLSREFFNQPIERKQKFSNLIDGKNFQIQGYGTDRVVTQDQILDWSDRLHLRVEPKEEQDLAFWPDHPESFRDVLNKYASGTKRIRDDIIQAMAKLLELDEDYFLDRLNEAPAFARFNYYPPCPRPDLVFGIRPHSDGTLLTILLVDKDVSGLQVQRDGKWSNVEATPHTLLINLGDTMEVMCNGIFRSPVHRVVTNAEKERISLAMLYSVNDEKDIEPAAGLLDENRPARYRKVSVEEFRAGIFGKFSRGERYIDSLRI
- Crop Injury (%), 210 g/ha (2X) Mesotrione (transgenic cotton plants): 0%
- Crop Injury (%), 840 g/ha (8X) Mesotrione (transgenic cotton plants): 0%
- specific activity of the second hydroxylation [1]: highest activity
- % Injury [2]: 12%
